{
  "source": "paper PMC5935710",
  "about": "“Structure and mechanism of the two-component α-helical pore-forming toxin YaxAB” (Nature Communications, 2018)",
  "key": {"YaxA [1]": {"molecular_target": "T1, YaxA (Y. enterocolitica, UniProt A1JM51 1-411)", "T1 construct": "YaxA of Yersinia enterocolitica serovar 8, biovar 1 (ATCC 23715), ORF YE1984; 45.9 kDa; native mass spectrometry verified that the full-length protein was purified; the ORF was amplified from cDNA of ATCC 23715; The pore model 6EL1 holds YaxA residues 45-153 and 169-410; also called YaxA^WT; WT YaxA; not shown: His6, N-terminal, cleaved; SUMO, N-terminal, cleaved", "T1 sequence": "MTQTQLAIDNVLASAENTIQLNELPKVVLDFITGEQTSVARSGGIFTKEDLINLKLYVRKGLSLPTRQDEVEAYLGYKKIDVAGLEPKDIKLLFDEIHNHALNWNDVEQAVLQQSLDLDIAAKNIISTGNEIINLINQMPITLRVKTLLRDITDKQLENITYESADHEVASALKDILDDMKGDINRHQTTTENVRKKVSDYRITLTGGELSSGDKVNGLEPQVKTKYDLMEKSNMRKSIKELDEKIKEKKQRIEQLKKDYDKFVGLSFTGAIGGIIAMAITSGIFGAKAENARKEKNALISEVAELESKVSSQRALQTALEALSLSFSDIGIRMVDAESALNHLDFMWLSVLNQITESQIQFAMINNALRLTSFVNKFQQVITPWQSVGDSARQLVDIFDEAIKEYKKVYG", "experiment": "SEC; purified YaxA and YaxB mixed in solution; ratio of the two in the complex from SDS-PAGE band intensities", "conditions": "both partners purified"}, "[2]": {"molecular_target": "the molecule itself", "experiment": "cryo-EM structure; 1 mg each of YaxA and YaxB mixed at room temperature, Cymal-6 treated, Superose 6, exchanged into amphipol A8-35; 2 mg/mL; C10 symmetry imposed, 6.1 Å; a C9 class at 7.6 Å"}, "YaxA [3]": {"molecular_target": "T1, YaxA", "experiment": "negative-stain EM; YaxA, then YaxB (1.5-fold molar excess) on human erythrocyte ghosts; pores extracted with 1.5% Cymal-6, purified on Superose 6 and a 10-40% sucrose gradient; 0.1 mg/mL on grids, uranyl formate stain", "conditions": "both partners purified"}},
  "data": [
    {"binder": "YaxB (natural protein, YaxB of Yersinia enterocolitica serovar 8, biovar 1 (ATCC 23715), ORF YE1985; 39.3 kDa; the ORF was cloned behind His6 and a TEV site; the ORF was amplified from cDNA of ATCC 23715; The pore model 6EL1 holds YaxB residues 12-343; also called YE1985; not shown: His6, N-terminal, cleaved) MAEISTFPHSGLSYPDINFKIFSQGVKNISHLAQFKTTGVEVLQEKALRVSLYSQRLDVIVRESLSSLQVKLENTLALTYFTTLEEIDEALISQDIDEESKSEMRKERINIIKNLSNDITQLKQLFIEKTELLDKSSSDLHNVVIIEGTDKVLQAEQLRQKQLTEDIATKELERKEIEKKRDKIIEALDVIREHNLVDAFKDLIPTGENLSELDLAKPEIELLKQSLEITKKLLGQFSEGLKYIDLTDARKKLDNQIDTASTRLTELNRQLEQSEKLIAGVNAVIKIDQEKSAVVVEAEKLSRAWHIFIHEITALQGTSLNEVELSKPLIKQQIYLESLIKQLI", "values": [
      {"measurement": "stoichiometry N", "setting": "YaxA [1]", "value": "1 YaxA:YaxB"},
      {"measurement": "stoichiometry N", "setting": "[2]", "value": 10},
      {"measurement": "radial spokes (YaxA–YaxB dimers) per complex", "setting": "YaxA [3]", "value": 11, "unit": "fold symmetry"}
    ]}
  ]
}
